The results in this text go back to paper PMC11132685.

The stoichiometry N is a count of units in the complex or per binding partner.

Common to all, as to assay: SEC-MALS; purified NACHOs; oligomeric state; conditions not given
The target in experiment [1] is tetrabrachion-stabilised recombinant N2 NA (NACHO) of A/TEXAS/50/2012 (not stated | influenza A virus (H3N2) A/TEXAS/50/2012).
Experiment [2] concerns the target tetrabrachion-stabilised recombinant N2 NA (NACHO) of A/SINGAPORE/INFIMH160019/2016 (not stated | influenza A virus (H3N2) A/SINGAPORE/INFIMH160019/2016).
For experiment [3], the target named is tetrabrachion-stabilised recombinant N2 NA (NACHO) of A/SWEDEN/3/2017 (not stated | influenza A virus (H3N2) A/SWEDEN/3/2017).
For experiment [4], the target named is tetrabrachion-stabilised recombinant N2 NA (NACHO) of A/PARIS/2379/2014 (not stated | influenza A virus (H3N2) A/PARIS/2379/2014).
For experiment [5], the target named is tetrabrachion-stabilised recombinant N2 NA (NACHO) of A/BRISBANE/273/2016 (not stated | influenza A virus (H3N2) A/BRISBANE/273/2016).
The target of experiment [6] is tetrabrachion-stabilised recombinant N2 NA (NACHO) of A/VICTORIA/361/2011 (not stated | influenza A virus (H3N2) A/VICTORIA/361/2011).
Experiment [7] deals with tetrabrachion-stabilised recombinant N2 NA (NACHO) of A/STOCKHOLM/14/2012 (not stated | influenza A virus (H3N2) A/STOCKHOLM/14/2012).
Experiment [8] concerns the target tetrabrachion-stabilised recombinant N2 NA (NACHO) of A/ANKARA/2396/2015 (not stated | influenza A virus (H3N2) A/ANKARA/2396/2015).
In experiment [9] the target is tetrabrachion-stabilised recombinant N2 NA (NACHO) of A/CATALONIA/9503S/2017 (not stated | influenza A virus (H3N2) A/CATALONIA/9503S/2017).
Experiment [10] concerns the target tetrabrachion-stabilised recombinant N2 NA (NACHO) of A/HONGKONG/4801/2014 (not stated | influenza A virus (H3N2) A/HONGKONG/4801/2014).
For experiment [11], the target named is tetrabrachion-stabilised recombinant N2 NA (NACHO) of A/HATAY/4990/2016 (not stated | influenza A virus (H3N2) A/HATAY/4990/2016).

Turning to “tetrabrachion-stabilised recombinant N2 NA (NACHO) of A/TEXAS/50/2012 (enzyme)”, in experiment [1], the stoichiometry N was 4.

Turning to “tetrabrachion-stabilised recombinant N2 NA (NACHO) of A/SINGAPORE/INFIMH160019/2016 (enzyme)”, in experiment [2], the stoichiometry N came to 4.

“tetrabrachion-stabilised recombinant N2 NA (NACHO) of A/SWEDEN/3/2017 (enzyme)”: in [3], the stoichiometry N is 4.

Consider “tetrabrachion-stabilised recombinant N2 NA (NACHO) of A/PARIS/2379/2014 (enzyme)”, for which the stoichiometry N in experiment [4] was 4.

“tetrabrachion-stabilised recombinant N2 NA (NACHO) of A/BRISBANE/273/2016 (enzyme)”: the stoichiometry N in experiment [5] came out at 4.

Take “tetrabrachion-stabilised recombinant N2 NA (NACHO) of A/VICTORIA/361/2011 (enzyme)”: in experiment [6], the stoichiometry N was 4.

As for “tetrabrachion-stabilised recombinant N2 NA (NACHO) of A/STOCKHOLM/14/2012 (enzyme)”, the stoichiometry N in experiment [7] was found to be 4.

As for “tetrabrachion-stabilised recombinant N2 NA (NACHO) of A/ANKARA/2396/2015 (enzyme)”, the stoichiometry N in experiment [8] was found to be 4.

With “tetrabrachion-stabilised recombinant N2 NA (NACHO) of A/CATALONIA/9503S/2017 (enzyme)”, in experiment [9], the stoichiometry N worked out at 4.

As to “tetrabrachion-stabilised recombinant N2 NA (NACHO) of A/HONGKONG/4801/2014 (enzyme)”, the stoichiometry N in experiment [10] stood at 4.

In the case of “tetrabrachion-stabilised recombinant N2 NA (NACHO) of A/HATAY/4990/2016 (enzyme)”, the stoichiometry N in [11] was 4.
